The text below walks through data of patent US20220409535A1, “BIOLOGICAL AGENT-EXOSOME COMPOSITIONS AND USES THEREOF” (The University of North Carolina at Chapel Hill, priority 2016, published 2022).

≈ marks a conversion by molar mass, not a printed value.

One series has as its system MDCK MDR1. The series can be described thus: In vitro cytotoxicity (MTT), MDCK MDR1. Format: cell-based, canine. To be noted: Canis lupus familiaris; MDCK MDR1, 48 hours. How it is done: (§1) Briefly, cancer cells (MDCKMDR1, MDCKwt, and 3LL-M27) were seeded at 5,000 cells/well in 100 μL of media in 96-well plates overnight. […] Following the incubation, the cells were washed and incubated with MTT reagent as described in Batrakova et al., Mol. Pharm. 3:113 (2006) Epub 2006/04/04. The cytotoxic activity of PTX was then evaluated using a standard MTT assay (Ferrari et al., J. Immunol. Meth. 131:165 (1990)). The absorbance at 570 nm was measured using a Shimadzu RF5000 fluorescent spectrophotometer. The survival values were determined in relation to control cells cultured in drug-free media. All experiments were repeated at least three times. SEM values were less than 10%.

The test system of the next series is MDCK wt. The series is described as follows: In vitro cytotoxicity (MTT), MDCK wt. In kind it is cell-based, canine. The note with it: Canis lupus familiaris, 48 hours. How it is done: as §1
Another series deals with 3LL-M27. The series is described as follows: In vitro cytotoxicity (MTT), 3LL-M27. Format: cell-based, murine. The note with it: Mus musculus; 3LL-M27, 48 hours. How it is done: as §1
For another series, the system named is sigma receptor. The series can be described thus: Receptor competitive inhibition by free anisamide. The note with it: 3LL-M27 cells, one hour. Format: cell-based, murine. On the procedure:
Receptor Competitive Inhibition. To determine whether AA-vectorized exosomes to sigma receptor were accumulated in cancer cells via receptor-mediated endocytosis, a receptor competitive inhibition study was carried out. For this purpose, first a lipophilic fluorescent dye, DiL, was incorporated into exosome membranes. Briefly, the supernatant of RAW 264.7 macrophage conditioned media free of cells and cellular debris was filtered with a 0.22 μm PES filter and incubated with DiL dye (4 μM) at 37° C. for 20 min. Following a 20-minute incubation, ExoQuick-TC™ exosome precipitation solution was added to the filtered supernatant, the mixture was vortexed, and incubated overnight at 4° C. Then, the mixture was vortexed again and subsequently centrifuged at 1500×g for 30 minute to pellet exosomes. The supernatant was discarded and the exosome pellet was re-suspended in PBS. Freshly-prepared fluorescently labeled exosomes or exosomes stored at −20° C. were used for all experiments.
Next, 3LL-M27 cells were seeded overnight at 50,000 cells/well in a 96-well plate. […] The fluorescence levels in cell suspensions were measured by a Shimadzu RF5000 fluorescent spectrophotometer, and adjusted for protein content analyzed by BCA Assay using the Pierce BCA Protein Assay Kit (Thermo Fisher Scientific, Waltham, Mass., USA). […]

The subject of a further series is hCMEC/D3 cells. The series is described as follows: Flow cytometry of cell uptake of Mϕ exosomes and endocytosis markers. In kind it is cell-based, human. To be noted: CM-DiI labeled exosomes, 4 h. On the procedure: Flow Cytometry of Cell Uptake. hCMEC/D3 cells were grown in 24-well plates at […] for 4-5 days to reach confluence. Exosomes were labeled by adding CM-DiI dyes (2 μg/ml, Life Technologies) to the medium before the first […] pelleting step. In the uptake mechanism studies, the cells were pretreated with endocytosis inhibitors, carbohydrates or EGTA for 0.5 h, and then co-treated with CM-DiI labeled exosomes (0.6×10^10 exosomes/ml) for 4 h. The inhibition of endocytosis markers uptake was studied similarly. The endocytosis markers used were Alexa Fluor 488-Transferrin (10 μg/ml, Life technologies) for clathrin mediated endocytosis, Alexa Fluor 488-CTB (5 μg/ml, Life technologies) for caveolae mediated endocytosis, and FITC-Dextran (70 kDa, Sigma) (10 mg/ml) for macropinocytosis. The antibody block assays were done by co-incubating exosomes with antibodies or isotope controls at 100 μg/ml for 4 h. The cells were washed trice by PBS, detached by 0.25% trypsin/EDTA, collected by centrifugation at 100 g for 10 min, fixed with 4% paraformaldehyde for 10 min, and then resuspended in 0.35 ml PBS. Viable singlets were gated based on forward scatter and side scatter. 5,000-10,000 viable singlets were recorded for each sample on Becton Dickinson LSRII (BD Biosciences) using 488 nm and 532 nm lasers. Unless otherwise noted in figure legend, data are not normalized and reported as mean fluorescence±SD of 3 replicate wells.
On the technique in general: In flow cytometry, cells or beads pass a laser one at a time.

The test system of a further series is ICAM-1. The series is described as follows: ICAM-1 expression in hCMEC/D3 cells by western blot. Format: cell-based, human. How it is done:
Protein expression was determined by western blot using β-actin as loading control.
In general terms: In western blotting, separated proteins are transferred to a membrane and probed.

A further series deals with PC12 cells. The series can be described thus: Cell viability (MTT) of PC12 cells exposed to 6-OHDA. Format: cell-based, rat. On the procedure:
Cell viability assay: The protection of PC12 cell by exoCAT prepared by sonication was assessed by MTT assay. For this purpose, PC12 cells (1×10^5 cells/mL) were seeded into a 96-well plate and allowed to attach overnight. Then, the cells were exposed to 200 μM 6-OHDA and different exoCAT formulations, or catalase alone, or empty exosomes for four hours. Following the incubation, the cells were washed 3 times with ice-cold PBS, and incubated with the corresponding exoCAT formulations, or catalase alone, or empty exosomes for another 24 hours. Following the treatment, 20 μL MTT (5 mg/mL) was added into each well. After 3 hours of incubation at 37° C., the medium containing MTT was removed; and 100 μL DMSO was added into each well to dissolve the purple MTT formazan. Absorbances were read at λ=570 nm by a microplate reader, and cell viability was expressed as a percentage of viable cells in the treated groups compared to the untreated control group.

Series [1] in a line: Preservation of catalase enzymatic activity and stability of exoCAT. Format: physicochemical. The note with it: sonication conditions. On the procedure:
Enzymatic activity of catalase loaded into exosomes: The loading efficiency for different exoCAT formulations was assessed by catalase enzymatic activity using hydrogen peroxide decomposition assay (Zhao et al., Nanomedicine (Lond) 6:25 (2011)). For this purpose, different exoCAT formulations were incubated with pronase (0.1-0.2 mg/mL) for 3 hours at 37° C. Following the incubation, the aliquots were subjected for catalytic activity assessment as described above. The same assay was used to examine the preservation of catalase enzymatic activity in exosomes against proteases degradation. Stability of catalase was expressed in the residual activity vs. initial activity of catalase.

For series [2] the following is noted: calculated from the molecular mass of the enzyme; cited from earlier work.
Series [3] is described as follows: Size of catalase exosomal formulations by DLS and NTA. The note with it: DLS. In kind it is physicochemical. On the procedure: Characterization of different exoCAT formulations by (Dynamic Light Scattering) DLS, (Atomic Force Microscopy) AFM, Nanoparticle Tracking Analysis (NTA), and Hyperspectral microscopy: The effective hydrodynamic diameter of empty exosomes, or exosomes loaded with catalase was measured by DLS using the ZetaPlus' Zeta Potential Analyzer (Brookhaven Instruments, […]., USA) equipped with a 35 mW solid state laser (658 nm laser) as described in (Bronich et al., J. Amer. Chem. Soc. 122:8339 (2000); Vinogradov et al., Colloids Surfaces B-Biointerfaces 16:291 (1999)). The size, distribution, and number of particles for various exosomal formulations were also examined by NTA. For this purpose, exoCAT formulations were prepared at concentration 0.01 mg/mL, and evaluated using NanoSight 500, Version 2.2 (Wiltshire, United Kingdom). The morphology of exoCAT aggregates was investigated by AFM. Different exoCAT formulations were prepared in 50 mM phosphate buffer, pH 7.4 at total protein 10 μg/mL. A drop of the sample was placed on a glass slide, and dried under an argon flow. The AFM imaging was operated as described earlier (Zhao et al., Nanomedicine (Lond) 6:25 (2011)).

Another series concerns 6-OHDA-intoxicated mice. The series can be described thus: Immunohistochemical and stereological analyses in 6-OHDA PD mouse model. To be noted: i.n.
For series [4] the following is noted: Patterson et al.; cited from earlier work.
Series [5] in a line: Brain delivery of BDNF and Mϕ exosomes complex. In kind it is in vivo, mouse. To be noted: brain-inflamed mice, 10 min. On the procedure:
Animal Procedure. Mice were anesthetized with 40% urethane (4 g/kg) by intraperitoneal injection. Iodine labeled substances (4×10^5 cpm) were injected to the right jugular vein. At each time point, blood was collected from the left carotid artery, allowed to clot and then centrifuged at 5400 g for 10 min to collect serum. The whole brain and peripheral organs were removed and weighed immediately after blood sampling. The radioactivity of serum and tissues were counted and normalized to injected dose (ID) by volume (ml) or weight (g) (% ID/ml or % ID/g). An injection check representing ID was also counted (n=3).
PK data analysis. The noncompartmental PK parameters Vss (ml), Cl (ml/min), MRTlast and MRTinf (h) were estimated using Phoenix® WinNonlin® 6.3 (Pharsight). The Ki (slope) and Vi (y-intercept) were calculated from the linear portion of multiple-time regression analysis (Price et al., J. Pharmacol. Exper. Ther. 333:253 (2010); Patlak et al., J. Cerebral Blood Flow Metab. 3:1 (1983); Patlak et al., J. Cerebral Blood Flow Metab. 5:584 (1985)). Brain/serum ratio (Am/Cpt, ml/g) of co-injected BSA was used to correct for the vascular space or leakage (Banks et al, Brain Behav. Immun. 2010, 24:102 (2010)), and subtracted from that of tested substance to get the delta brain/serum ratio. […]
We further determined if Mϕ exosomes would ferry BDNF to the brain. […]

As a reminder, the IC50 is the concentration that inhibits the measured activity by half. A high value points to weaker potency.

Method for 6-OHDA-intoxicated mice: For the detection of microglia activation, tissue sections were incubated with primary monoclonal rat anti-mouse anti-CD11b antibodies (1:500 dilution), and secondary biotinylated goat anti-rat antibodies (Vector Laboratories, Burlingame, Calif., 1:200 dilution). […] In addition, levels of astrocytosis were assessed in the ventral midbrain region by fluorescent analysis of glial fibrillary acidic protein (GFAP) expression. For the GFAP staining, tissue sections were permeabilized with 0.01% Triton X-100 in TBS for 30 minutes and blocked for 1 hour with 10% normal goat serum (NGS, Vector Laboratories Inc., Burlingame, Calif.), then incubated with rabbit anti-GFAP primary polyclonal antibodies ab7260 (AbCam, Cambridge, Mass.) 1:100 dilution for 16 hours at 4° C. […] Immunoreactivity was evaluated by fluorescent analysis using confocal microscope Zeiss 510 Meta Confocal Laser Scanning Microscope (Jena, Germany), and ImageJ software (NIH, Bethesda, Mass., USA).

Turning to `CC(=O)O[C@H]1C(=O)[C@@]2(C)[C@H]([C@H](OC(=O)c3ccccc3)[C@]3(O)C[C@H](OC(=O)[C@H](O)[C@@H](NC(=O)c4ccccc4)c4ccccc4)C(C)=C1C3(C)C)[C@]1(OC(C)=O)CO[C@@H]1C[C@@H]2O` [PTX, paclitaxel], the results for the IC50 in the series on MDCK MDR1, in the series with MDCK wt and in the series on 3LL-M27 were more than 10 µg/mL, 0.429 ± 0.0634 µg/mL (≈ 0.502 µM) and 0.126 ± 0.0313 µg/mL (≈ 0.148 µM), respectively.

On to `COc1ccc(C(N)=O)cc1` [free AA, anisamide], for which the “competitive inhibition of uptake by free AA” value with sigma receptor is “not able completely inhibit exosome uptake”.

Consider `N[C@H]1C(O)O[C@H](CO)[C@@H](O)[C@@H]1O` (stereo partly drawn) [glucosamine], for which, in the series with hCMEC/D3 cells, the “effect on uptake of Mϕ exosomes” value is listed as “inhibited the uptake at lower concentrations”. For the same molecule, the ICAM-1 expression result in the series on ICAM-1 is “did not inhibit the expression of ICAM-1”.

B1: Catalase alone: Catalase from bovine liver (protein, UniProt P00432 2-527, looked up)
Catalase: ADNRDPASDQMKHWKEQRAAQKPDVLTTGGGNPVGDKLNSLTVGPRGPLLVQDVVFTDEMAHFDRERIPERVVHAKGAGAFGYFEVTHDITRYSKAKVFEHIGKRTPIAVRFSTVAGESGSADTVRDPRGFAVKFYTEDGNWDLVGNNTPIFFIRDALLFPSFIHSQKRNPQTHLKDPDMVWDFWSLRPESLHQVSFLFSDRGIPDGHRHMNGYGSHTFKLVNANGEAVYCKFHYKTDQGIKNLSVEDAARLAHEDPDYGLRDLFNAIATGNYPSWTLYIQVMTFSEAEIFPFNPFDLTKVWPHGDYPLIPVGKLVLNRNPVNYFAEVEQLAFDPSNMPPGIEPSPDKMLQGRLFAYPDTHRHRLGPNYLQIPVNCPYRARVANYQRDGPMCMMDNQGGAPNYYPNSFSAPEHQPSALEHRTHFSGDVQRFNSANDDNVTQVRTFYLKVLNEEQRKRLCENIAGHLKDAQLFIQKKAVKNFSDVHPEYGSRIQALLDKYNEEKPKNAVHTYVQHGSHLSAREKANL
With B1, the “neuroprotective activity (neuronal survival, MTT)” value with PC12 cells is listed as “did not protect PC12 cells”. Further, the “catalase enzymatic activity upon sonication” value in series [1] is 14%. The “theoretical diameter of a single protein globule” value in [2] was 10.5 nm. Also, the “Deff (nm)” value in series [3] and in series [3] (listed as naked catalase) was 9.5 nm throughout. In [3], this molecule yielded a PdI of 0.10. For the same molecule, the “anti-inflammatory and neuroprotective effect” value with 6-OHDA-intoxicated mice is on record as “not effective in decreasing inflammation or providing neuroprotection”.

B2: BDNF: brain derived neurotrophic factor (protein, UniProt P23560 19-247, looked up)
Neurotrophic factor BDNF …: APMKEANIRGQGGLAYPGVRTHGTLESVNGPKAGSRGLTSLADTFEHVIEELLDEDQKVRPNEENNKDADLYTSRVMLSSQVPLEPPLLFLLEEYKNYLDAANMSMRVRRHSDPARRGELSVCDSISEWVTAADKKTAVDMSGGTVTVLEKVPVSKGQLKQYFYETKCNPMGYTKEGCRGIDKRHWNSQCRTTQSYVRALTMDSKKRIGWRFIRIDTSCVCTLTIKRGR
With B2, the isoelectric point in series [4] is given as 9.99. In addition, the “brain accumulation of BDNF” value in series [5] was “the difference was not significant”.
